In patent publication US20250270584A1 (University of California, published 2025):
Values belong to the binder of their own block, whether it stands above or below them.

Legend:
GST-CaM7 = target: T1, GST-CaM7 (Arabidopsis thaliana, UniProt P59220 1-149); experiment: pull-down with CTD deletion variants
T1 construct: also called pGEX-CaM7

CaM7 (calmodulin 7) = target: T2, CaM7 (calmodulin 7) (Arabidopsis thaliana, UniProt P59220 1-149); experiment: IP-MS, anti-Flag IP of GLR3.3-3Flag from leaves of transgenic plants; co-enrichment, may be indirect
T2 construct: also called AT3G43810; pBudCE4.1-EF-1α-CaM7

3Flag-CaM7 = target: T3, 3Flag-CaM7 (Arabidopsis thaliana, UniProt P59220 1-149); experiment: Co-IP with anti-GFP agarose from transgenic plants expressing GLR3.3-EGFP and 3Flag-CaM7
T3 construct: also called p35S::Flag-CaM7

binding result (GST-CaM7): no binding
B1: MBP-CD2 (other, not shown: large carriers)
chain: LYFVQIIRQLYKKPTDDAIARMDEKEESKHESKKRKIDGSMNDTSGSTRSRGFDRERSFNSVNPLD
notes: domain: CTD

binding result (CaM7 (calmodulin 7)): binds
B2: GLR3.3-3Flag (receptor)
chain: EKPKVVKIGSIFSFDSVIGKVAKIAIDEAVKDVNSNPDILSGTKFSVSMQNSNCSGFMGMVEALRFMEKDIVGIIGPQCSVVAHMISHMANELRVPLLSFAVTDPVMSPLQFPYFIRTTQSDLYQMDAIASIVDFYGWKEVIAVFVDDDFGRNGVAALNDKLASRRLRITYKAGLHPDTAVNKNEIMNMLIKIMLLQPRIVVIHVYSELGFAVFKEAKYLGMMGNGYVWIATDWLSTNLDSSSPLPAERLETIQGVLVLRPHTPDSDFKREFFKRWRKMSGASLALNTYGLYAYDSVMLLARGLDKFFKDGGNISFSNHSMLNTLGKSGNLNLEAMTVFDGGEALLKDILGTRMVGLTGQLQFTPDRSRTRPAYDIINVAGTGVRQIGYWSNHSGLSTVLPELLYTKEKPNMSTSPKLKHVIWPGETFTKPRGWVFSNNGKELKIGVPLRVSYKEFVSQIRGTENMFKGFCIDVFTAAVNLLPYAVPVKFIPYGNGKENPSYTHMVEMITTGNFDGVVGDVAIVTNRTKIVDFTQPYAASGLVVVAPFKKLNSGAWAFLRPFNRLMWAVTGCCFLFVGIVVWILEHRTNDEFRGPPKRQCVTILWFSFSTMFFAHRENTVSTLGRLVLIIWLFVVLIINSSYTASLTSILTVQQLSSPIKGIESLRERDDPIGYQVGSFAESYLRNELNISESRLVPLGTPEAYAKALKDGPSKGGVAAIVDERPYVELFLSSNCAYRIVGQEFTKSGWGFAFPRDSPLAIDLSTAILELAENGDLQRIHDKWLMKNACTLENAELESDRLHLKSFWGLFLICGVACLLALFLYFVQIIRQLYKKPTDDAIARDQQQNHDSSSMRSTRLQRFLSLMDEKEESKHESKKRKIDGSMNDTSGSTRSRGFDRERSFNSVNPLD
notes: Bait of the IP-MS, expressed in the glr3.3/glr3.6 mutant background; also called p35S::GLR3.3-3Flag; not shown: C-terminal 3Flag tag of vector pCambia1300-3Flag

binding result (3Flag-CaM7): binds
B3: GLR3.3-EGFP (receptor)
chain: B2 chain
notes: Used in the Co-IP with anti-GFP magnetic agarose; also called pGLR3.3::GLR3.3-EGFP; not shown: EGFP fusion partner
